Data taken from publication PMC3643604.

Target: MED25 ACID/PTOV domain (purified) (human)
Assay: ITC

ERM 38–68 peptide (from UniProt P41161 38-68)
Kd: 543 nM | stoichiometry N: 1
